This is an account of results in patent US20030171537, “Peptides and peptidomimetics with structural similarity to human p53 that activate p53 function” (published 2003).

This data set addresses p53 wild-type (Homo sapiens, UniProt P04637 SEQ:1-393). Put plainly: EMSA; binds quite efficiently; PAb421 stimulation +. The note with it: chain copies: 4 inferred; label: 32P.

p53 wild-type, sequence (P04637 whole entry): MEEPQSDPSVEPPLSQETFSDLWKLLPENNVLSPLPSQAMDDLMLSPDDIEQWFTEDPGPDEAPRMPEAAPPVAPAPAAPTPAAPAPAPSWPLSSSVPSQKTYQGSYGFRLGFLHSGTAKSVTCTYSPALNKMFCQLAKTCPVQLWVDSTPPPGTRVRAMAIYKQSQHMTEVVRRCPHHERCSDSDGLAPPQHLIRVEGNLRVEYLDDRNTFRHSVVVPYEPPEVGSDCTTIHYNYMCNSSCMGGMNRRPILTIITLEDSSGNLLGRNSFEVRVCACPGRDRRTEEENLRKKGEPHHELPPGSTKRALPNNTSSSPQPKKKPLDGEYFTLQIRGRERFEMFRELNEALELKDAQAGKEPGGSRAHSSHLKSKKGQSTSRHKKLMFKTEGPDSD
Description: Briefly the in vitro translated protein is incubated with a radioactively labeled oligonucleotide containing a p53 binding site in the presence of non-specific competitor DNA. The reaction mixture is incubated 20 min. at room temperature and directly loaded on a native 5% polyacrylamide electrophoresis gel. In this type of DNA binding assay free DNA migrates to the bottom of the gel, whereas p53/DNA complexes migrate more slowly.

B1: BC (dsDNA)
DNA 1: CCGGGCATGTCCGGGCATGTCCGGGCATGT
DNA 2: ACATGCCCGGACATGCCCGGACATGCCCGG
Regarding B1, the binding result is listed as “binds”.
